Source: patent publication US20250042994A1 (HAINAN SIMCERE ZAIMING PHARMACEUTICAL, published 2025)
Positions count from the first letter of the chain named.

B1: F3.121.4-L2H2 (antibody, mouse IgG1, kappa, V domains shown)
VH: EVQLVQSGAEVKKPGASVKVSCKASGYTFTNYWMHWVRQAPGQGLEWMGEIDPSDNYANYNQEFQGRVTITVDKSASTAYMELSSLRSEDTAVYYCARHDGYFGALDYWGQGTTVTVSS
VL: EIVLTQSPDFQSVTPKEKVTITCSASSSISSNYLHWYQQKPDQSPKLLIKRTSNLASGVPSRFSGSGSGTDFTLTINSLEAEDAATYYCQQASSIPRMFTFGQGTKLEIKR
notes: humanized antibody of F3.121.4, VL2+VH2, murine IgG1 constant regions
B2: F3.121.4-L2H1 (antibody, mouse IgG1, kappa, V domains shown)
VH: B1 VH with G44R
VL: B1 VL
notes: humanized antibody of F3.121.4, VL2+VH1, murine IgG1 constant regions
B3: F3.121.4-L1H4 (antibody, mouse IgG1, kappa)
heavy: EVQLQQSGAEVKKPGASVKVSCKASGYTFTNYWMHWVRQRPGQGLEWMGEIDPSDNYANYNQEFQGRVTITVDKSASTAYMELSSLRSEDTAVYYCARHDGYFGALDYWGQGTTVTVSSAKTTPPSVYPLAPGSAAQTNSMVTLGCLVKGYFPEPVTVTWNSGSLSSGVHTFPAVLQSDLYTLSSSVTVPSSTWPSETVTCNVAHPASSTKVDKKIVPRDCGCKPCICTVPEVSSVFIFPPKPKDVLTITLTPKVTCVVVDISKDDPEVQFSWFVDDVEVHTAQTQPREEQFNSTFRSVSELPIMHQDWLNGKEFKCRVNSAAFPAPIEKTISKTKGRPKAPQVYTIPPPKEQMAKDKVSLTCMITDFFPEDITVEWQWNGQPAENYKNTQPIMDTDGSYFVYSKLNVQKSNWEAGNTFTCSVLHEGLHNHHTEKSLSHSPGK
light: EIVLTQSPATLSLSPGERATLSCSASSSISSNYLHWYQQKPGQAPRFLIYRTSNLASGIPARFSGSGSGTDFTLTISSLEPEDFAVYYCQQASSIPRMFTFGQGTKLEIKRADAAPTVSIFPPSSEQLTSGGASVVCFLNNFYPKDINVKWKIDGSERQNGVLNSWTDQDSKDSTYSMSSTLTLTKDEYERHNSYTCEATHKTSTSPIVKSFNRNEC
notes: humanized antibody of F3.121.4, VL1+VH4, murine IgG1 constant regions

target: T1, Human CD19-his protein (human, UniProt P15391 20-291); experiment: ELISA on coated human CD19-His
T1 construct: bought protein; also called recombinant human CD19-His; CD19 full-length protein; not shown: His tag
T1 sequence (looked up): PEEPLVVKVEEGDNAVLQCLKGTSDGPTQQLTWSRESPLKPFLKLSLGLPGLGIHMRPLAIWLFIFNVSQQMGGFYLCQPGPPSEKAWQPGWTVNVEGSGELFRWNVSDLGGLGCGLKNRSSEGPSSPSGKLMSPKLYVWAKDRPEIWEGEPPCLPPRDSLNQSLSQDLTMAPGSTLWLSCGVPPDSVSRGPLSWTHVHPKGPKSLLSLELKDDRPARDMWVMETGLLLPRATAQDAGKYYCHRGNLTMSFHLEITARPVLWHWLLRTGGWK

| Binder | EC50 (read off the curve) [nM] |
| --- | --- |
| B1 | ~0.05 |
| B2 | ~0.05 |
| B3 | ~0.05 |

target: T1, Human CD19-his protein; experiment: ELISA, coated human CD19-His
Method: Human CD19-his protein (purchased from ACROBiosystems, catalog number: CD9-H52H2) was diluted with PBS to a final concentration of 4 μg/mL, and then added to a 96-well ELISA plate at 100 μl/well. The plate was sealed with a plastic film and incubated overnight at 4° C., the plate was washed 2 times with PBS the next day, and then a blocking solution [PBS+2% (w/w) BSA] was added for blocking at room temperature for 2 h. The blocking solution was poured off, and 100 nM gradiently diluted CD19 chimeric antibody or control antibody was added at 50 μl/well. After incubation at 37° C. for 2 h, the plate was washed 3 times with PBS. […] TMB substrate was added at 50 μl/well, and incubated at room temperature for 10 min, and then a stop solution (1.0 N HCl) was added at 50 μl/well. The OD450 nm values were read by an ELISA microplate reader (Multimode Plate Reader, EnSight, purchased from Perkin Elmer).

| Binder | OD450 at 0.0001 nM [OD450] | OD450 at 0.001 nM [OD450] | OD450 at 0.01 nM [OD450] | OD450 at 0.10 nM [OD450] | OD450 at 1.00 nM [OD450] | OD450 at 10 nM [OD450] | OD450 at 100 nM [OD450] |
| --- | --- | --- | --- | --- | --- | --- | --- |
| B1 | 0.1 | 0.13 | 0.37 | 1.51 | 2.42 | 2.41 | 2.55 |
| B2 | 0.1 | 0.13 | 0.38 | 1.52 | 2.42 | 2.45 | 2.57 |
| B3 | 0.1 | 0.13 | 0.39 | 1.56 | 2.51 | 2.55 | 2.67 |

target: T2, human CD19 on Raji cells (human, UniProt P15391 20-556); experiment: FACS on Raji cells
T2 construct: whole, on cells
T2 sequence (looked up): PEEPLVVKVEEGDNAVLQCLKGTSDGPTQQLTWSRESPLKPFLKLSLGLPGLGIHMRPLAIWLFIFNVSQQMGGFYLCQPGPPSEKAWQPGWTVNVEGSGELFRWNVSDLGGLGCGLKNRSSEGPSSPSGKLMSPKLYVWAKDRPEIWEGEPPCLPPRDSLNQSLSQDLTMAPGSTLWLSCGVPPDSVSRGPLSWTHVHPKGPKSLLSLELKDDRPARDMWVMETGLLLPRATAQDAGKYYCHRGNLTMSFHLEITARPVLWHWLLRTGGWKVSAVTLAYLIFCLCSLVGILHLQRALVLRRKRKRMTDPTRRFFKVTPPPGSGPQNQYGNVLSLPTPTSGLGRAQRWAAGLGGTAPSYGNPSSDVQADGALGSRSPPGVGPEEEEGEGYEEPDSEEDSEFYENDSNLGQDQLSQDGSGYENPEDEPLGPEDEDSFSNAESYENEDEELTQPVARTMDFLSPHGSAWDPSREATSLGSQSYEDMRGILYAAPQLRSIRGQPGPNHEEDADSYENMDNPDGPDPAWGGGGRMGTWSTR
Method: (§1) After the digestion was terminated, the cells were washed 2 times with a PBS buffer; and for suspension cell Raji, the supernatant of the medium was discarded by directly centrifugation, and the cell pellet was washed 2 times with PBS. After counting the cells in the previous step, the cell pellet was resuspended with [PBS+2% (w/w) BSA] blocking solution to 2×10⁶ cells/ml, and added to a 96-well FACS reaction plate at 50 μl/well, and then the sample to be tested was added at 50 μl/well, and incubated on ice for 2 h. The obtained mixture was centrifuged and washed 3 times with a PBS buffer. […] The obtained mixture was centrifuged and washed 5 times with a PBS buffer, and FACS (FACS Canto™, purchased from BD Company) was used for detection and result analysis. Data analysis was performed by software (FlowJo) to obtain the mean fluorescence intensity (MFI) of the cells. And then software (GraphPad Prism8) was used for analysis, data fitting, and EC50 value calculation. […] The same method was used to detect the binding of the chimeric antibodies to endogenous CD19-negative cells, MoLT4 cells (purchased from ATCC, CRL-1582), and CHO-K1 cells.

| Binder | EC50 [nM] | Maximum mean fluorescence intensity [MFI] |
| --- | --- | --- |
| B1 | 0.41 | 30100 |
| B2 | 0.38 | 29100 |
| B3 | 0.44 | 31600 |

target: T3, human CD19 on CHO-K1-human CD19 cells (human, UniProt P15391 20-556); experiment: FACS on CHO-K1-human CD19 cells
T3 construct: whole, on cells; also called CHO-K1-human CD19-2C8
T3 sequence (looked up): T2 sequence (looked up)
Method: as §1

| Binder | EC50 [nM] | Maximum mean fluorescence intensity [MFI] |
| --- | --- | --- |
| B1 | 1.14 | 52200 |
| B2 | 1.08 | 53200 |
| B3 | 1.19 | 54700 |

target: T4, human CD19 exon1-3-His tag protein (human, UniProt P15391 20-186, limits assumed); experiment: ELISA, coated human CD19 exon 1-3-His
T4 construct: membrane-distal part of the extracellular region, made in HEK293E cells; not shown: His tag
T4 sequence (looked up): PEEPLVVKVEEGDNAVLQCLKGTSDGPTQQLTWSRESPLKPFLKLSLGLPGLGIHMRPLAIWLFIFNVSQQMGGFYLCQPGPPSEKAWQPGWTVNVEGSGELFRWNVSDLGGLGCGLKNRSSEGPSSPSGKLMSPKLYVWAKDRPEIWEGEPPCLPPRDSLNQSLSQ

| Binder | OD450 at 0.0001 nM [OD450] | OD450 at 0.001 nM [OD450] | OD450 at 0.01 nM [OD450] | OD450 at 0.10 nM [OD450] | OD450 at 1.00 nM [OD450] | OD450 at 10 nM [OD450] | OD450 at 100 nM [OD450] |
| --- | --- | --- | --- | --- | --- | --- | --- |
| B1 | 0.05 | 0.05 | 0.05 | 0.05 | 0.05 | 0.05 | 0.09 |
| B2 | 0.05 | 0.05 | 0.05 | 0.05 | 0.05 | 0.05 | 0.09 |
| B3 | 0.05 | 0.05 | 0.05 | 0.05 | 0.05 | 0.05 | 0.08 |

target: T1, Human CD19-his protein; experiment: SPR Biacore, method of example 7.1, human CD19-His
Method: A sample buffer and a running buffer were HBS-EP+ (10 mM HEPES, 150 mM NaCl, 3 mM EDTA and 0.05% surfactant P20) (GE Healthcare; BR-1006-69). The flow-through cell was set to 25° C. The sample block was set to 16° C. Both were pretreated with the running buffer. In each cycle, an antibody to be detected was first captured with a Protein A chip, and then a single concentration of CD19 antigen protein was injected. The binding and dissociation processes of the antibody and the antigen protein were recorded, and finally Glycine pH 1.5 (GE Healthcare; BR-1003-54) was used to complete chip regeneration. The binding was measured by injecting different concentrations of recombinant human CD19-His proteins in a solution for 240 s with a flow rate of 30 μl/min. The concentration started from 200 nM (see the detailed results for the actual concentration in the test) and was diluted at 1:1, making a total of 5 concentrations. The dissociation phase was monitored for up to 600 s and was triggered by switching from sample solution to running buffer. The surface was regenerated by washing with a 10 mM glycine solution (pH 1.5) for 30 s at a flow rate of 30 μl/min. Bulk refractive index difference was corrected by subtracting the response obtained from the goat anti-human Fc surface. Blank injection was also subtracted (=double reference). For calculation of apparent KD and other kinetic parameters, Langmuir 1:1 model was used.
SPR (biacore) detection and data analysis were performed according to the method in example 7.1.

| Binder | Kd [nM] | koff [s⁻¹] | kon [M⁻¹ s⁻¹] |
| --- | --- | --- | --- |
| B1 | 1.46 | 0.000195 | 134000 |
| B2 | 1.43 | 0.000186 | 130000 |
| B3 | 0.000205 | 1.86e-08 | 91100 |
